Results from patent publication US7902330 (ALBERT EINSTEIN COLLEGE OF MEDICINE OF YESHIVA UNIVERSITY, dated 2011).
Starred links: 1 amine or outer side, 2 acyl side, 3 side chain; linkers in the order of their positions; H or OH if unused. Non-standard residues stand in square brackets, D forms with d. *: point of attachment. 4‑nitrohippuryl = O=C(NCC(=O)*)c1ccc([N+](=O)[O-])cc1; Benzoyl(4-(pyrrol-1-yl)) = O=C(c1ccc(-n2cccc2)cc1)*; bis(2,3-dihydroxybenzyl) = not defined here; Cysteamide = C(CS[*:3])N[*:1]; Dap = NC[C@H](N)C(=O)O

T1: protein kinase C ε (UniProt Q02156 1-737, limits assumed)
T1 sequence (looked up): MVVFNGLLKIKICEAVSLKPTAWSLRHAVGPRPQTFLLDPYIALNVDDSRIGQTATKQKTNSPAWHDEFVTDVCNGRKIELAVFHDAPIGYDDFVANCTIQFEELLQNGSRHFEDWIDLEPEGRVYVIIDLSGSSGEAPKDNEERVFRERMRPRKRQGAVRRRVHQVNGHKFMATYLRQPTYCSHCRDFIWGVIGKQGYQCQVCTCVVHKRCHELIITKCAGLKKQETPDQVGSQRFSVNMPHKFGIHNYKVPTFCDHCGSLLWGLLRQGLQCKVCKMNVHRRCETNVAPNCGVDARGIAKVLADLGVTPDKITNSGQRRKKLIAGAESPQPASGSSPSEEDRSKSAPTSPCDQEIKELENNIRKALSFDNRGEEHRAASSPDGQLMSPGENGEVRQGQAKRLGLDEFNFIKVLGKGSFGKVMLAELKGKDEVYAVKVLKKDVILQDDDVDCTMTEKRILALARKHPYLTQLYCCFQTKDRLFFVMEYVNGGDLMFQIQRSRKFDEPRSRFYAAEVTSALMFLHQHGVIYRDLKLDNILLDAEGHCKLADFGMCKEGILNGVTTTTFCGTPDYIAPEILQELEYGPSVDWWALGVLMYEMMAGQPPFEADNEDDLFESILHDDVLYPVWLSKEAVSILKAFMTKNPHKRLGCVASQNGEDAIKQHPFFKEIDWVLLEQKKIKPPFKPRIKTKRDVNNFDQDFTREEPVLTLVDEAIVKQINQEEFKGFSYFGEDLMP

T2: protein kinase C ζ (UniProt Q05513 1-592, limits assumed)
T2 sequence (looked up): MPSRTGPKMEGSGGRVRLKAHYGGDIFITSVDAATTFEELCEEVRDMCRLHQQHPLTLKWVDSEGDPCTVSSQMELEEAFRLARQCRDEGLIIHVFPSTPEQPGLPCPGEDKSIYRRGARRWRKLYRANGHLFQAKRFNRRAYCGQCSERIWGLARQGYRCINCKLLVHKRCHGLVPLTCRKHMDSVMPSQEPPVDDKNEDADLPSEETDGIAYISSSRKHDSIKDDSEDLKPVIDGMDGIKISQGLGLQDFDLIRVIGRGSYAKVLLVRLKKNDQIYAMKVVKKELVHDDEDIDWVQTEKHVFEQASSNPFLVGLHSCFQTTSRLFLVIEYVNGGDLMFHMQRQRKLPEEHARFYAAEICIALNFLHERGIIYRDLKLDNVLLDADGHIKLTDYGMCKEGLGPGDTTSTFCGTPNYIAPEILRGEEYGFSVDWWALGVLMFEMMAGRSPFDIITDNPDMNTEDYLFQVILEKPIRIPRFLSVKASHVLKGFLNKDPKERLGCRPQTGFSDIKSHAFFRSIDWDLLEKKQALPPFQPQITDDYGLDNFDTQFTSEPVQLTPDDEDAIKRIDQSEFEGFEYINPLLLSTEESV

T3: protein kinase C τ (atypical; ι in the tables) (UniProt P41743 1-596)
T3 sequence (looked up): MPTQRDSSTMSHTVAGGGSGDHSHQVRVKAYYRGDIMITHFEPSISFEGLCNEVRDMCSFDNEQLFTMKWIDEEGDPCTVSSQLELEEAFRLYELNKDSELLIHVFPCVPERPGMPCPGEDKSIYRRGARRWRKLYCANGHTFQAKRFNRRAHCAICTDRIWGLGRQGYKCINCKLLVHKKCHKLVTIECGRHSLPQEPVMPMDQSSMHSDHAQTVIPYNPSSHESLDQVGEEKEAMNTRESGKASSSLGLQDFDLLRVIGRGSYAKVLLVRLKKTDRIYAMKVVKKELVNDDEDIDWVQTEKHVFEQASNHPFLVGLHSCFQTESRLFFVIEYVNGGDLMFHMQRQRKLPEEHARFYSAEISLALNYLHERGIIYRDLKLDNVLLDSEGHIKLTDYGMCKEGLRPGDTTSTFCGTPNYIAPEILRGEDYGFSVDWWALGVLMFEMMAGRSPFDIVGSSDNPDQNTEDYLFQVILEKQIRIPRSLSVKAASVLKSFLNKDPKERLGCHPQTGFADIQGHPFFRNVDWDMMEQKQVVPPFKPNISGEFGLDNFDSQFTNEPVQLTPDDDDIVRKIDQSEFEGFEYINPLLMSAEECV


What was measured:
[1] = molecular target: T4, protein kinase Cα (UniProt P17252 1-672, limits assumed); experiment: equilibrium dialysis with fluorescence read-out, 250 nM PKCα and 500 nM peptide 7, 4° C., with AMP-PNP
T4 construct: also called PKCα; PKC α
Method: (§1) Determination of K_D Values. […] All samples were prepared in a buffer containing 50 mM HEPES (pH 7.5), 0.8 mM CaCl_2.2H_2O, 13.6 mM MgCl_2.6H_2O, 0.56 mM EGTA.Na, phosphatidylserine (90 µg/mL), diacylglycerol (16 µg/mL), 4 mM Tris (pH 7.5), 0.2 mM DTT, BSA (146 µg/mL), 0.2 mM EDTA.4Na.2H_2O and AMP-PNP (a nonhydrolyzable ATP analogue) or without AMP-PNP at pH 7.5. Slide-A-Lyzer dialysis slide cassettes (Pierce, 10K MWCO, 0.1-0.5 mL capacity) were employed and contained 250 nM PKCα and 500 nM fluorescein-labeled peptide 7. The slide cassettes contained a final volume of 180 µL. The cassettes were placed in beaker containing a volume of buffer solution that was at least 500-fold greater than that of the sample volume in the dialysis slide cassette. Equilibrium dialysis experiments were performed over a period of 16 hr and maintained at 4° C. The fluorescence intensity of the solutions in the slide cassette (F_i) and in the beaker (F_o) was measured. The excitation wavelength for the fluorescein-labeled peptide 7 was 499 nm and the emission monitored at 519 nm. The K_D values were calculated from Equation 1.

[2] = molecular target: T4, protein kinase Cα; experiment: equilibrium dialysis with fluorescence read-out, 250 nM PKCα and 500 nM peptide 7, 4° C., without AMP-PNP
Method: as §1

[3] = molecular target: T5, protein kinase C γ (UniProt P05129 1-697, limits assumed); experiment: cell-based or functional assay
[4] = molecular target: T1, protein kinase C ε; experiment: cell-based or functional assay
[5] = molecular target: T6, protein kinase C η (UniProt P24723 1-683, limits assumed); experiment: cell-based or functional assay
[6] = molecular target: T7, protein kinase C θ (UniProt Q04759 1-706, limits assumed); experiment: cell-based or functional assay
[7] = molecular target: T2, protein kinase C ζ; experiment: cell-based or functional assay
[8] = molecular target: T4, protein kinase Cα; experiment: cell-based or functional assay
[9] = molecular target: T8, protein kinase C βI (UniProt P05771-1 1-671, limits assumed); experiment: cell-based or functional assay
[10] = molecular target: T5, protein kinase C γ; experiment: cell-based or functional assay; remark: listed apart in the source
[11] = molecular target: T1, protein kinase C ε; experiment: cell-based or functional assay; remark: listed apart in the source
[12] = molecular target: T6, protein kinase C η; experiment: cell-based or functional assay; remark: listed apart in the source
[13] = molecular target: T7, protein kinase C θ; experiment: cell-based or functional assay; remark: listed apart in the source
[14] = molecular target: T3, protein kinase C τ (atypical; printed ι …); experiment: cell-based or functional assay
[15] = molecular target: T2, protein kinase C ζ; experiment: cell-based or functional assay; remark: listed apart in the source
[16] = molecular target: T4, protein kinase Cα; experiment: cell-based or functional assay; remark: listed apart in the source
[17] = molecular target: T8, protein kinase C βI; experiment: cell-based or functional assay; remark: listed apart in the source
[18] = molecular target: T2, protein kinase C ζ; experiment: PKC ζ 33P kinase assay, double reciprocal plots at variable peptide substrate; competitive pattern
Method: K_i determinations. […] ATP for radioactive detection. 10 µL enzyme diluted buffer containing 20 mM Tris (pH 7.5), PKC (10 ng/well), 0.5 mM DTT, BSA (375 µg/mL) and 0.5 mM EDTA.4Na.2H_2O was added to initiate the reaction. Total reaction volume in each well was 50 µL. All the wells were tested in the same plate and each concentration was tested in triplicate. Subsequent assay workup and scintillation counting were performed as described above. Double reciprocal plots were obtained at different concentrations of substrates. K_i values were calculated using Enzyme Kinetics, SigmaPlot (SPSS Inc.).

T8 sequence (P05771 whole entry): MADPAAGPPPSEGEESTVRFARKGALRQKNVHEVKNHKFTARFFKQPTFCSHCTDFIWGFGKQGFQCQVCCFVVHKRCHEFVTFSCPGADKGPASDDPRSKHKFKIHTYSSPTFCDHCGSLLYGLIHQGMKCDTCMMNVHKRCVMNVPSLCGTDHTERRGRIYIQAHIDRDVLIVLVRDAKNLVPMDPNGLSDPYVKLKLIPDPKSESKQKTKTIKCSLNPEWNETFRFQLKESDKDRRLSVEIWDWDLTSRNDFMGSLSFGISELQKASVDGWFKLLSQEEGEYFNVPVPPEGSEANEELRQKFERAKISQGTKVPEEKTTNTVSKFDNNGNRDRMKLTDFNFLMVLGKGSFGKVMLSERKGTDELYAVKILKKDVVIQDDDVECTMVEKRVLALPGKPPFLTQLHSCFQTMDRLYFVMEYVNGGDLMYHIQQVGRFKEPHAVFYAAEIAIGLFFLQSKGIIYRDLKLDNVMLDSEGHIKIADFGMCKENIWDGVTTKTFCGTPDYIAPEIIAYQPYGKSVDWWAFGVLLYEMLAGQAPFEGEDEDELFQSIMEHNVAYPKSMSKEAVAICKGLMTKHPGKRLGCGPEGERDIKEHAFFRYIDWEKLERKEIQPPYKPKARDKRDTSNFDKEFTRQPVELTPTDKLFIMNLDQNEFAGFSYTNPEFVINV
T6 sequence (P24723 whole entry): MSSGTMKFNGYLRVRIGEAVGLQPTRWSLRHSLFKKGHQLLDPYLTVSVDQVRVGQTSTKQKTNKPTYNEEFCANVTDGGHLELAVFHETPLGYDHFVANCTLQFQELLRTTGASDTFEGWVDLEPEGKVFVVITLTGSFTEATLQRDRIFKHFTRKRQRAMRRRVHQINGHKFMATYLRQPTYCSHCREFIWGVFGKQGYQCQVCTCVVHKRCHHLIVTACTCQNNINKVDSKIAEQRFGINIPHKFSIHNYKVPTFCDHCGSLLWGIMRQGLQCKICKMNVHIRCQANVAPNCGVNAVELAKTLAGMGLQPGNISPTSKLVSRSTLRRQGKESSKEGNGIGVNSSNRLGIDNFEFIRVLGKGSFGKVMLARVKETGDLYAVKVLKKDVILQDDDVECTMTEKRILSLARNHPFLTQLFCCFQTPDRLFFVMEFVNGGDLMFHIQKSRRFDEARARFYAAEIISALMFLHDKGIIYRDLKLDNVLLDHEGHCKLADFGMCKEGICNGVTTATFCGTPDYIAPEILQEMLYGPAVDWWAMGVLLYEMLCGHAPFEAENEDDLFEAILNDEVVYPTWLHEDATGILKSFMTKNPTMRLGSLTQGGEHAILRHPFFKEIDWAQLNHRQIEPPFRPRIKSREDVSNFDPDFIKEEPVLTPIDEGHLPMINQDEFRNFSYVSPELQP
T7 sequence (Q04759 whole entry): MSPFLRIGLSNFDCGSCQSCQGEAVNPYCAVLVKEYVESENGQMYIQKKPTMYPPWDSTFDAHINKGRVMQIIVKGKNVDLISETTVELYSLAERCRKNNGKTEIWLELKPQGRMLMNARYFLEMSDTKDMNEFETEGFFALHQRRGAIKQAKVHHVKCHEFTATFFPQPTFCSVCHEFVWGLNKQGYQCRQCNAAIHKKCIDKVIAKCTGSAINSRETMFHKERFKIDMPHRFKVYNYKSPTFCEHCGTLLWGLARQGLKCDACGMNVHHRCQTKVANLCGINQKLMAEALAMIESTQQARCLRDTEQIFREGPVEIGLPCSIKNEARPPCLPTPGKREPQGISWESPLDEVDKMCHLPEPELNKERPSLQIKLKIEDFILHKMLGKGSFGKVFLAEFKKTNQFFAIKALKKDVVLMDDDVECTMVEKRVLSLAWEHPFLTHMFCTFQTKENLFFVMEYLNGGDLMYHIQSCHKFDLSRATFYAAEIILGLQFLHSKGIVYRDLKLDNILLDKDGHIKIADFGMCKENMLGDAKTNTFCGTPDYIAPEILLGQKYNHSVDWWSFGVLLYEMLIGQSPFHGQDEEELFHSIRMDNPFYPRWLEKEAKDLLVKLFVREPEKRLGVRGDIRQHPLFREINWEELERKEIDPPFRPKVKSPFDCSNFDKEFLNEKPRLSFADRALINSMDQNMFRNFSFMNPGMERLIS

| Binder | Kd [1] | Kd [2] | IC50, PKC kinase assay (33P, peptide substrate) [3] | IC50, PKC kinase assay (33P, peptide substrate) [4] | IC50, PKC kinase assay (33P, peptide substrate) [5] | IC50, PKC kinase assay (33P, peptide substrate) [6] | IC50, PKC kinase assay (33P, peptide substrate) [7] | IC50, PKC kinase assay (33P, peptide substrate) [8] | IC50, PKC kinase assay (33P, peptide substrate) [9] | Fold selectivity (IC50), PKC ζ = 1 [10] | Fold selectivity (IC50), PKC ζ = 1 [11] | Fold selectivity (IC50), PKC ζ = 1 [12] | Fold selectivity (IC50), PKC ζ = 1 [13] | Fold selectivity (IC50), PKC ζ = 1 [14] | Fold selectivity (IC50), PKC ζ = 1 [15] | IC50 or Ki of the most potently inhibited isoform [15] | Fold selectivity (IC50), PKC ζ = 1 [16] | Fold selectivity (IC50), PKC ζ = 1 [17] | Ki [18] |
| --- | --- | --- | --- | --- | --- | --- | --- | --- | --- | --- | --- | --- | --- | --- | --- | --- | --- | --- | --- |
| Ac-ARRGALR[Dap](Benzoyl(4-(pyrrol-1-yl)))A-{NH(CH2)2S-CH2CONH‑fluorescein‑5‑yl} [fluorescein-labeled peptide 7] | 0.203 µM | 1.8 µM |  |  |  |  |  |  |  |  |  |  |  |  |  |  |  |  |  |
| {bis(2,3-dihydroxybenzyl)}-RRQG[Dap](4‑nitrohippuryl)FMYF-Cysteamide (reading uncertain) [Compound G (doubly alkylated analogue of F)] |  |  | 38.2 µM | 34.5 µM | 15.3 µM | 16.7 µM | 0.00075 µM | 47.5 µM | 5.5 µM | 5090 fold | 4600 fold | 2040 fold | 2230 fold | 1490 fold | 1 fold | 0.0075 µM | 6330 fold | 730 fold | 0.0039 µM |
